These results are taken from patent US20050215467A1 (published 2005).

Series [1] deals with T1, LCAT (purified from human plasma) (human, UniProt P04180 25-440).
T1 sequence (looked up): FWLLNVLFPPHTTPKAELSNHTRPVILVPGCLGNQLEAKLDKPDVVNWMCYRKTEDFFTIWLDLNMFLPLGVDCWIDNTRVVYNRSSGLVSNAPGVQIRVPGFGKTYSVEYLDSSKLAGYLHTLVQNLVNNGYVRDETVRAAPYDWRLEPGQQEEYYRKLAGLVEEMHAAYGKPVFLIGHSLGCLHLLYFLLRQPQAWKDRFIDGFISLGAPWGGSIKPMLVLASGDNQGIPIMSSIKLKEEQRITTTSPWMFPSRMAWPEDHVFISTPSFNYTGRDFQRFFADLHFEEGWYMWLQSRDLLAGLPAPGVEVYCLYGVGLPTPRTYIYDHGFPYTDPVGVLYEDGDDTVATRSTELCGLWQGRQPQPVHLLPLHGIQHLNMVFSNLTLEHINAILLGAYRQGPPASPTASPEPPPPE
The experiment in a line: cell-based or functional assay.

Series [2] concerns the molecule itself. The series is described as follows: tryptophan fluorescence emission maximum (332 nm), peptide free in buffer; self-association.

Consider PVLDLFRELGNELLEALKQKLK [peptide 9], for which the “ACTIVITY (%) LCAT” value in series [1] worked out at 63%.

B1: peptide 15 (peptide)
peptide: PVLDLFRELWNELLEALKQKLK
notes: peptide 4 containing a Trp residue at position 10
Turning to B1, the binding result in series [2] is on record as “binds”.
